According to article PMC9864105:

Target: recombinant HIV-1 RTIN (reverse transcriptase and integrase in fusion form, the Pol precursor intermediate) (HIV-1 (NL4-3))
Experiment: SEC

recombinant HIV-1 RTIN (reverse transcriptase and integrase in fusion form, the Pol precursor intermediate) (enzyme)
share of rRTIN in the hexamer or higher multimer: 80%
